Reference: the RNAGym collection of RNA variant scans (doi:10.1093/molbev/msab373)

B1: Azoarcus group I ribozyme (parent)
chain: GUGCCUUGCGCCGGGAAACCACGCAAGGGAUGGUGUCAAAUUCGGCGAAACCUAAGCGCCCGCCCGGGCGUAUGGCAACGCCGAGCCAAGCUUCGGCGCCUGCGCCGAUGAAGGUGUAGAGACUAGACGGCACCCACCUAAGGCAAACGCUAUGGUGAAGGCAUAGUCCAGGGAGUGGCGAAAGUCACACAAACCGG

Variants of: B1
Assay: reverse-splicing fitness (ratio to wild type); higher = more active; in vitro selection; Mg2+ level not given
Procedure, shortened: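 An in vitro group I ribozyme library with randomized positions was T7-transcribed and gel-purified. In triplicate, 10 pmol RNA in EPPS pH 7.5 was reacted with 50 pmoles of a 30-nt RNA substrate for 1 h at 37 °C across several added MgCl2 levels (1–48 mM), then stopped with EDTA. Products were reverse transcribed from a substrate-complementary primer, PCR-amplified and sequenced (HiSeq 4000). Fitness is a variant's read proportion after selection over that before, normalised to wild type.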

Row | Variant | reverse-splicing fitness
1 | A111U A120U A145C C150U C169U | 0.0159
2 | A111U A120U A145C C150G | 0.0741
3 | A111U A120U A145C C150U | 0.15
4 | A111U A120U A145C C150A | 0.0261
5 | A111U A120U A145C C150A C169U U176A | 0.00285
6 | A111U A120U A145C C150A C169U U176C | 0.00285
7 | A111U A120U A145C C150A C169U U176G | 0.00241
8 | A111U A120G A145C C150A C169U | 0.0118
9 | A111U A120G A145C C150A C169A | 0.00967
10 | A111U A120G A145C C150A C169G | 0.0146
11 | A111U A120G A145G C150U C169A | 0.0845
12 | A111U A120G A145G C150U C169U | 0.133
13 | A111U A120G A145G C150U C169G | 0.166
14 | A111U A120U A145C C150A C169A U176C | 0.00287
15 | A111U A120U A145C C150A C169A U176A | 0.00272
16 | A111U A120U A145C C150A C169A U176G | 0.00243
17 | A111U A120G C150A C169G | 0.0231
18 | A111U A120G C150A C169A | 0.015
19 | A111U A120G C150A C169U | 0.0186
20 | A111U A120G A145U C150G C169U | 0.0212
21 | A111U A120G A145U C150G C169A | 0.0162

Row | Variant | reverse-splicing fitness
22 | A111U A120G A145U C150G C169G | 0.021
23 | A111U A120U A145C C169A U176C | 0.00249
24 | A111U A120U A145C C169A U176G | 0.00152
25 | A111U A120U A145C C169A U176A | 0.0026
26 | A111U A120G A145G C150U C169G U176C | 0.0424
27 | A111U A120G A145G C150U C169G U176G | 0.00498
28 | A111U A120G A145G C150U C169G U176A | 0.0272
29 | A111U A120G A145G C150A C169G U176G | 0.00526
30 | A111U A120G A145G C150A C169G U176C | 0.0294
31 | A111U A120G A145G C150A C169G U176A | 0.0198
32 | A111U A120G A145G C150A | 0.0285
33 | A111U A120G A145G C150G | 0.0235
34 | A111U A120G A145G C150U | 0.133
35 | A111U A120G C150U U176G | 0.00616
36 | A111U A120G C150U U176A | 0.0266
37 | A111U A120G C150U U176C | 0.0413
38 | A111U A120G A145C C150A C169A U176A | 0.0144
39 | A111U A120G A145C C150A C169A U176C | 0.00665
40 | A111U A120G A145C C150A C169A U176G | 0.004
41 | A111U A120G A145U C150G C169U U176A | 0.0147
42 | A111U A120G A145U C150G C169U U176C | 0.0151

Row | Variant | reverse-splicing fitness
43 | A111U A120G A145U C150G C169U U176G | 0.00433
44 | A111U A120G A145G U176C | 0.0543
45 | A111U A120G A145G U176G | 0.00558
46 | A111U A120G A145G U176A | 0.0417
47 | A111U A120G A145C C150G C169A U176G | 0.00416
48 | A111U A120G A145C C150G C169A U176A | 0.00822
49 | A111U A120G A145C C150G C169A U176C | 0.00757
50 | A111U A120U A145C C169G U176G | 0.00199
51 | A111U A120U A145C C169G U176C | 0.00515
52 | A111U A120U A145C C169G U176A | 0.00441
53 | A111U A120G A145C C150A C169G U176G | 0.00529
54 | A111U A120G A145C C150A C169G U176A | 0.0261
55 | A111U A120G A145C C150A C169G U176C | 0.015
56 | A111U A120G A145U C150G U176G | 0.00309
57 | A111U A120G A145U C150G U176A | 0.00927
58 | A111U A120G A145U C150G U176C | 0.0142
59 | A111U A120G A145C C169G | 0.193
60 | A111U A120G A145C C169A | 0.11
61 | A111U A120G A145C C169U | 0.151
62 | A111U A120G A145C C169U U176G | 0.00629
63 | A111U A120G A145C C169U U176A | 0.0455

Row | Variant | reverse-splicing fitness
64 | A111U A120G A145C C169U U176C | 0.0453
65 | A111U A120G A145U C150G | 0.02
66 | A111U A120G A145U C150A | 0.0183
67 | A111U A120G A145U C150U | 0.104
68 | A111U A120U A145C C150U U176A | 0.0565
69 | A111U A120U A145C C150U U176G | 0.0208
70 | A111U A120U A145C C150U U176C | 0.0423
71 | A111U A120G A145G C150A C169A U176C | 0.0255
72 | A111U A120G A145G C150A C169A U176G | 0.00599
73 | A111U A120G A145G C150A C169A U176A | 0.0188
74 | A111U A120G A145G C169A U176C | 0.0453
75 | A111U A120G A145G C169A U176G | 0.00472
76 | A111U A120G A145G C169A U176A | 0.0312
77 | A111U A120G A145U C169G U176C | 0.045
78 | A111U A120G A145U C169G U176G | 0.00486
79 | A111U A120G A145U C169G U176A | 0.0309
80 | A111U A120G A145C C150A C169U U176A | 0.0208
81 | A111U A120G A145C C150A C169U U176C | 0.0114
82 | A111U A120G A145C C150A C169U U176G | 0.00521
83 | A111U A120G A145U C150U C169G U176C | 0.0378
